According to patent US20190300590A1 (PROTAGONIST THERAPEUTICS, published 2019):
Bridges are numbered along the chain shown (N, C = ends). [ ]: non-standard residue; d: D form. 1Nal = N[C@@H](Cc1cccc2ccccc12)C(=O)O; NMeQ = CN[C@@H](CCC(N)=O)C(=O)O; Cit = NC(=O)NCCC[C@H](N)C(=O)O; Abu = CC[C@H](N)C(=O)O; AEA = NCCOCC(=O)O; βAla = NCCC(=O)O

T1: Rat IL-23R_huFC (rat; human, UniProt F1LX96 39-369)
T1 sequence: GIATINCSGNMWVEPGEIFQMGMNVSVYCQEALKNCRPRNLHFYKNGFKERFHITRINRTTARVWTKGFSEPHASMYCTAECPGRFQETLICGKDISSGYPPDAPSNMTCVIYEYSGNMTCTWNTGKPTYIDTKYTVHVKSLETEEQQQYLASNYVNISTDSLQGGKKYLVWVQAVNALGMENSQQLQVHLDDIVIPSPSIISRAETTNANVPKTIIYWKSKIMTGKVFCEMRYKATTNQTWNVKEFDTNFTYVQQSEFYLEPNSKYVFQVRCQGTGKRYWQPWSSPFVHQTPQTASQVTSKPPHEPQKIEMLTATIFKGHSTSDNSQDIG

T2: IL-23R on DB cells (human, UniProt Q5VWK5 24-629)
T2 sequence (looked up): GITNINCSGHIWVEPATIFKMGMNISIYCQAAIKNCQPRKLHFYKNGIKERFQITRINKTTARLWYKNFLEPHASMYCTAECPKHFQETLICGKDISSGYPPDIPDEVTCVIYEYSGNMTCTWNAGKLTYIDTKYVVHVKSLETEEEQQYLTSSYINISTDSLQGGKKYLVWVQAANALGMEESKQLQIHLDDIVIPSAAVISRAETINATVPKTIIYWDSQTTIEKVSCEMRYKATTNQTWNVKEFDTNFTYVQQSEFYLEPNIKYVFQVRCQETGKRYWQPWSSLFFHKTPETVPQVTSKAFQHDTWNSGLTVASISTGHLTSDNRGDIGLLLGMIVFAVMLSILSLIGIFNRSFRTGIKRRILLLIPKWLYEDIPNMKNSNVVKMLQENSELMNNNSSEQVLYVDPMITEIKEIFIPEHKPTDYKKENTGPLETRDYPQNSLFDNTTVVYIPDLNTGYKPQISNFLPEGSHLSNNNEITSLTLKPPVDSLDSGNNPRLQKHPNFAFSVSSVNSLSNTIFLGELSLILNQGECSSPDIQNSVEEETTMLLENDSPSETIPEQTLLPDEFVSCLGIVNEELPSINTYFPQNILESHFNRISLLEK


Experiments:
Rat IL-23R_huFC [1] = biological target: T1, Rat IL-23R_huFC; assay: rat IL-23R competitive ELISA
IL-23R on DB cells = biological target: T2, IL-23R on DB cells; assay: cell-based or functional assay
Rat IL-23R_huFC [2] = biological target: Rat IL-23R_huFC (rat); assay: rat ELISA vs IL-23

Row | Binder | IC50 (Rat IL-23R_huFC [1]) | pStat3 HTRF IC50 (IL-23R on DB cells) | other results
1 | Ac-CRTWQCYWRENGA[dK]-NH2 (cysteine pairing not given here) [Ac-CRTWQCYWRENGA-[(D)Lys]-NH2] | 86 nM | – | –
2 | Ac-CRTWQCYWREYGA[dK]-NH2 (cysteine pairing not given here) [Ac-CRTWQCYWREYGA-[(D)Lys]-NH2] | 80 nM | – | –
3 | CXTWQCYWRVFGXK (Ac-; [AEA]; [(D)Lys]; -NH2) [Ac-C-CYWRVFG-[AEA]-[(D)Lys]-NH2, listing 1 of 2 here] | 51 nM | – | –
4 | CXTWQCYWRVFGXK (Ac-; [AEA]; [(D)Lys]; -NH2) [Ac-C-CYWRVFG-[AEA]-[(D)Lys]-NH2, listing 2 of 2 here] | 100 nM | – | –
5 | XNTWQXFXLKNN (Ac; Pen-Pen disulfide; Phe(4-CONH2); 2-Nal; α-MeLeu; NH2; DIG linker joins the two subunits) [[Ac-[Pen]-NTWQ-[Pen]-[Phe(4-CONH2)]-[2-Nal]-[α-MeLeu]-KNN-NH2]2DIG] | – | < 10 nM | –
6 | Ac-CADWVCYWRKFG[βAla][dK]-NH2 (cysteine pairing not given here) [Ac-CADWVCYWRKFG-[βAla]-[(D)Lys]-NH2] | 33 nM | – | –
7 | XNTWQXFXLKNN (Ac; Pen-Pen disulfide; Phe(4-OMe); 2-Nal; α-MeLeu; NH2; DIG linker joins the two subunits) [[Ac-[Pen]-NTWQ-[Pen]-[Phe(4-OMe)]-[2-Nal]-[α-MeLeu]-KNN-NH2]2DIG] | – | < 10 nM | –
8 | Ac-CQTWQCYWRVFG[AEA][dK]-NH2 (disulfide 1-6 (inferred)) [Ac-CQTWQCYWRVFG-[AEA]-[(D)Lys]-NH2] | 62 nM | – | –
9 | CRTWQCYWRVFGXK (not fully specified; Ac-; [N-MeArg]; [AEA]; [(D)Lys]; -NH2) [Ac-C-[N-MeArg]-TWQCYWRVFG-[AEA]-[(D)Lys]-NH2] | 192 nM | – | –
10 | XNTWQXFXXKNN (Ac; Pen-Pen disulfide; Phe(4-OMe); 2-Nal; Achc; NH2; DIG linker joins the two subunits) [[Ac-[Pen]-NTWQ-[Pen]-[Phe(4-OMe)]-[2-Nal]-[Achc]-KNN-NH2]2DIG] | – | < 10 nM | –
11 | XNTWQXFXXKNN (Ac; Pen-Pen disulfide; Phe(4-OMe); 2-Nal; Aib; NH2; DIG linker joins the two subunits) [[Ac-[Pen]-NTWQ-[Pen]-[Phe(4-OMe)]-[2-Nal]-[Aib]-KNN-NH2]2DIG] | – | < 10 nM | –
12 | Ac-CADWVCY[1Nal][Cit]VFG[βAla][dK]-NH2 (disulfide 1-6 (inferred)) [Ac-CADWVCY-[1-Nal]-[Cit]-VFG-[β-Ala]-[(D)Lys]-NH2] | 22 nM | – | –
13 | XNTWQXFXXKNN (Ac; Pen-Pen disulfide; Phe(4-CONH2); 2-Nal; Acvc; NH2; DIG linker joins the two subunits) [[Ac-[Pen]-NTWQ-[Pen]-[Phe(4-CONH2)]-[2-Nal]-[Acvc]-KNN-NH2]2DIG] | – | < 10 nM | –
14 | Ac-C[NMeQ]TWQCYWRVFG[AEA][dK]-NH2 (disulfide 1-6 (inferred)) [Ac-C-[N-MeQln]-TWQCYWRVFG-[AEA]-[(D)Lys]-NH2] | 85 nM | – | –
15 | Ac-CNTWQCYWRVFG[AEA][dK]-NH2 (disulfide 1-6 (inferred)) [Ac-CNTWQCYWRVFG-[AEA]-[(D)Lys]-NH2] | 79 nM | – | –
16 | XNTWQXFXXKNN (Ac; Pen-Pen disulfide; Phe(4-OMe); 2-Nal; Acvc; NH2; DIG linker joins the two subunits) [[Ac-[Pen]-NTWQ-[Pen]-[Phe(4-OMe)]-[2-Nal]-[Acvc]-KNN-NH2]2DIG] | – | < 10 nM | –
17 | XQTWQCXXXKNG (as bracketed in name; thioether cyclo) [Ac-Cyclo-[[Abu]-QTWQC]-[2-Nal]-[2-Nal]-[α-MeOrn]-[Lys(Ac)]-NG-NH2] | – | – | IC50 (Rat IL-23R_huFC [2]): 100 to 1000 nM
18 | Ac-CRTWQ[Abu]YWRKFG[AEA][dK]-NH2 (thioether 1-6) [Ac-Cyclo-[CRTWQ-[Abu]]-YWRKFG-[AEA]-[(D)Lys]-NH2] | – | – | IC50 (Rat IL-23R_huFC [2]): 100 to 1000 nM
19 | CXTWQCYWRVFGXK (Ac-; [Cit]; [AEA]; [(D)Lys]; -NH2) [Ac-C-[Cit]-TWQCYWRVFG-[AEA]-[(D)Lys]-NH2] | 76 nM | – | –
20 | XNTWQXFXXKNN (Ac; Pen-Pen disulfide; Phe(4-OMe); 2-Nal; 4-amino-4-carboxy-tetrahydropyran; NH2; DIG linker joins the two subunits) [[Ac-[Pen]-NTWQ-[Pen]-[Phe(4-OMe)]-[2-Nal]-[4-amino-4-carboxy-tetrahydropyran]-KNN-NH2]2DIG] | – | < 10 nM | –
21 | XQTWQXFXKKNG (as bracketed in name; thioether cyclo) [Ac-Cyclo-[[Abu]-QTWQ-[Pen]]-[Phe(4-OMe)]-[2-Nal][α-MeLys]-[Lys(Ac)]NG-NH2] | – | – | IC50 (Rat IL-23R_huFC [2]): 100 to 1000 nM
